Biological target: native rat tail collagen type I (BD Biosciences), P02454
Sequence (P02454 152-1207, chain 1 of 2): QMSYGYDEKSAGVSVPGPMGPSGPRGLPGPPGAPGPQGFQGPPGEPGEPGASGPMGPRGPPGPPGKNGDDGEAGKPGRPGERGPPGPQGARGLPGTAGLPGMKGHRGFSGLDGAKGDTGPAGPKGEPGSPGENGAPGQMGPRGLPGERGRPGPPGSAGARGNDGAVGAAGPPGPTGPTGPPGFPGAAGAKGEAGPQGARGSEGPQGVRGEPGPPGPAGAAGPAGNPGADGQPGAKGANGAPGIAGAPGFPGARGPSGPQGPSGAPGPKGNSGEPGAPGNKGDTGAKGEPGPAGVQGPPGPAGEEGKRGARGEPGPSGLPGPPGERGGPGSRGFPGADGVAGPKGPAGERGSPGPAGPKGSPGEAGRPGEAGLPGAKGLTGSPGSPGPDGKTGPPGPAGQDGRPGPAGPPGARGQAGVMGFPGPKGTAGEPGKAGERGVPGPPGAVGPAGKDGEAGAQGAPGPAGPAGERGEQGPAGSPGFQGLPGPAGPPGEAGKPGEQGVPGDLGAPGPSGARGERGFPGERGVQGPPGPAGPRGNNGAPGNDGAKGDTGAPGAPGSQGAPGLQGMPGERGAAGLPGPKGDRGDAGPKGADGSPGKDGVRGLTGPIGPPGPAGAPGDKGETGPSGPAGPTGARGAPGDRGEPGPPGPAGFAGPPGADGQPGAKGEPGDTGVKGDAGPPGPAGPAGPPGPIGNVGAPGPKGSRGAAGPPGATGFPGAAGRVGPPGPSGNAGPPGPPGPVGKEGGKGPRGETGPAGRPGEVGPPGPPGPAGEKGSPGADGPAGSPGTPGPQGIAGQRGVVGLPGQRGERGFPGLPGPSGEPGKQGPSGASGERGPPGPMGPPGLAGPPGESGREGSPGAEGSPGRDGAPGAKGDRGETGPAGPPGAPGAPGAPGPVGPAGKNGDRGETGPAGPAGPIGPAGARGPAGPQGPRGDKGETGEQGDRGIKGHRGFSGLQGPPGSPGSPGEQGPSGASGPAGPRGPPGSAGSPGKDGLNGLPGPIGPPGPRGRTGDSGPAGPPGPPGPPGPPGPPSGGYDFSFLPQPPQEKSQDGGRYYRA
Sequence (chain, as listed by the source, chain 2 of 2): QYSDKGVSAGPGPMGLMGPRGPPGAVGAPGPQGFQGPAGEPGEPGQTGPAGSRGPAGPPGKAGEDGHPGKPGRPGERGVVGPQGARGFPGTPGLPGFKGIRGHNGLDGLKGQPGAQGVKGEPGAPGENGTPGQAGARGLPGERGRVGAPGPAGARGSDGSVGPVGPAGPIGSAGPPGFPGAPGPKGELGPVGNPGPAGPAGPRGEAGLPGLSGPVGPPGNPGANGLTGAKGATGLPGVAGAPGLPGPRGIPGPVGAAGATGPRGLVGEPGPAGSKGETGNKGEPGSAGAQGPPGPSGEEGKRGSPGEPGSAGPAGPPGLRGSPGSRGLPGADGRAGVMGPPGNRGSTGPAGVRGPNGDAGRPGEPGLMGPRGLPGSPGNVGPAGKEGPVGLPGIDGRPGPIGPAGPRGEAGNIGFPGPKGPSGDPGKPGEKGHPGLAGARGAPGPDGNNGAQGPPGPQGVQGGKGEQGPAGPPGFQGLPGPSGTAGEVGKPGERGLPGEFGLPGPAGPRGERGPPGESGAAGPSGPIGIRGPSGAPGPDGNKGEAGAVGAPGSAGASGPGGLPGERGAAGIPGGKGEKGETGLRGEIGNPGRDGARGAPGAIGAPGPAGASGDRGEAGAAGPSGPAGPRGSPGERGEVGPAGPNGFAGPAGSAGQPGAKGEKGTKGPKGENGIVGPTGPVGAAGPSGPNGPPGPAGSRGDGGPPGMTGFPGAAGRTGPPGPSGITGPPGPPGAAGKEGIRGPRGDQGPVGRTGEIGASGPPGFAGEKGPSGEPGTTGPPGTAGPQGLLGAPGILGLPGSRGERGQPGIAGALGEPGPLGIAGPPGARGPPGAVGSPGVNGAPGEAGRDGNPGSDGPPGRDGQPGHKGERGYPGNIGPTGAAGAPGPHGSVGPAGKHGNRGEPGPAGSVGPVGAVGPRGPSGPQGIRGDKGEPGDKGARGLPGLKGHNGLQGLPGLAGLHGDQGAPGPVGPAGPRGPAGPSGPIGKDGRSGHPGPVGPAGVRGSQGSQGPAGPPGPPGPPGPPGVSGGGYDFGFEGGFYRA

B1: recombinant human MMP1 (wild-type), secreted by AdhGRE.MMP1-infected HTM cells and activated with APMA (active form, 41 kDa) (protein)
chain: FVLTEGNPRWEQTHLTYRIENYTPDLPRADVDHAIEKAFQLWSNVTPLTFTKVSEGQADIMISFVRGDHRDNSPFDGPGGNLAHAFQPGPGIGGDAHFDEDERWTNNFREYNLHRVAAHELGHSLGLSHSTDIGALMYPSYTFSGDVQLAQDDIDGIQAIYGRSQNPVQPIGPQTPKACDSKLTFDAITTIRGEVMFFKDRFYMRTNPFYPEVELNFISVFWPQLPNGLEAAYEFADRDEVRFFKGNKYWAVQGQNVLHGYPKDIYSSFGFPRTVKHIDAALSEENTGKTYFFVANKYWRYDEYKRSMDPGYPKMIAHDFPGIGHKVDAVFMKDGFFYFFHGTRQYKFDPKTKRILTLQKANSWFNCRKN
digestion of native rat tail collagen type I (PAGE gel, Coomassie stain): digested native collagen type I into smaller fragments

From patent US20110301228
